B1: Mitogen-activated protein kinase kinase kinase 3 (Homo sapiens), Q99759 (parent)
chain: MDEQEALNSIMNDLVALQMNRRHRMPGYETMKNKDTGHSNRQSDVRIKFEHNGERRIIAFSRPVKYEDVEHKVTTVFGQPLDLHYMNNELSILLKNQDDLDKAIDILDRSSSMKSLRILLLSQDRNHNSSSPHSGVSRQVRIKASQSAGDINTIYQPPEPRSRHLSVSSQNPGRSSPPPGYVPERQQHIARQGSYTSINSEGEFIPETSEQCMLDPLSSAENSLSGSCQSLDRSADSPSFRKSRMSRAQSFPDNRQEYSDRETQLYDKGVKGGTYPRRYHVSVHHKDYSDGRRTFPRIRRHQGNLFTLVPSSRSLSTNGENMGLAVQYLDPRGRLRSADSENALSVQERNVPTKSPSAPINWRRGKLLGQGAFGRVYLCYDVDTGRELASKQVQFDPDSPETSKEVSALECEIQLLKNLQHERIVQYYGCLRDRAEKTLTIFMEYMPGGSVKDQLKAYGALTESVTRKYTRQILEGMSYLHSNMIVHRDIKGANILRDSAGNVKLGDFGASKRLQTICMSGTGMRSVTGTPYWMSPEVISGEGYGRKADVWSLGCTVVEMLTEKPPWAEYEAMAAIFKIATQPTNPQLPSHISEHGRDFLRRIFVEARQRPSAEELLTHHFAQLMY

Variants of: B1
Settings: with CCM2, Q9BSQ5-1
Chain of CCM2, Q9BSQ5-1 (Q9BSQ5 whole entry): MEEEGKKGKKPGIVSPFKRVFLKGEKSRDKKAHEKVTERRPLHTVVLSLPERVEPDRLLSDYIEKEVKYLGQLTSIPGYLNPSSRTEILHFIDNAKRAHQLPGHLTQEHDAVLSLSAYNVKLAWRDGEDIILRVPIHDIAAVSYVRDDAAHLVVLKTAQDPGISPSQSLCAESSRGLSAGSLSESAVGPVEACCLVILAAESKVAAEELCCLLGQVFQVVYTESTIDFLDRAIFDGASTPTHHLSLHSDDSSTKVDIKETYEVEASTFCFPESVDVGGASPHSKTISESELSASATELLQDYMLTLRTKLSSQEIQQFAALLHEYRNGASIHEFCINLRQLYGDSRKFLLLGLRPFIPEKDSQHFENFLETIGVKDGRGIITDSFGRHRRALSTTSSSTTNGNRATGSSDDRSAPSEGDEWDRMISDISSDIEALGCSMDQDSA
For L14D, the “effect of a mutation on the interaction” value was “disrupting interaction strength”.
For L17D, the “effect of a mutation on the interaction” value was “disrupting interaction strength”.
For I10D, the “effect of a mutation on the interaction” value was “disrupting interaction strength”.
For L7D, the “effect of a mutation on the interaction” value was “disrupting interaction strength”.
